# Measured values from the Human Domainome abundance scans (Beltran et al. 2025).
# ± gives the uncertainty stated by the source.
# B1: SAM and SH3 domain-containing protein 1, residues 630 to 700; numbered along this chain, O94885 (parent)
# chain: GRPPQPKSVEDLLDRINLKEHMPTFLFNGYEDLDTFKLLEEEDLDELNIRDPEHRAVLLTAVELLQEYDSN
# Variants of: B1
# Experiment: abundance fitness (aPCA) (normalised: wild type 0, dead -1); higher = more abundant; growth selection in yeast, the domain comes from the species named
# Settings: Homo sapiens
row,Variant,abundance fitness
1,GRPPQPKSVEDLLDRINLKEHMPTFLFNGYEDLDTFKLLEEEDLDELNIRDPEHRAVLLTAVELLWEYDSN,-0.21 ± 0.061
2,GRPPQPKSVEDLLDRINLKEHMPTFLFNGYEDLDTFKLLEEEDLDELNIRDPEHRAVLLTAVELLREYDSN,0.33 ± 0.034
3,GRPPQPKSVEDLLDRINLKEHMPTFLFNGYEDLDTFKLLEEEDLDELNIRDPEHRAVLLTAVELLVEYDSN,-0.587 ± 0.054
4,GRPPQPKSVEDLLDRINLKEHMPTFLFNGYEDLDTFKLLEEEDLDELNIRDPEHRAVLLTAVELLQEYMSN,-0.822 ± 0.079
5,GRPPQPKSVEDLLDRINLKEHMPTFLFNGYEDLDTFKLLEEEDLDELNIRDPEHRAVLLTAVELLQEYCSN,-0.479 ± 0.094
6,GRPPQPKSVEDLLDRINLKEHMPTFLFNGYEDLDTFKLLEEEDLDELNIRDPEHRAVLLTAVELLQEYRSN,-0.531 ± 0.058
7,GRPPQPKSVEDLLDRINLKEHMPTFLFNGYEDLDTFKLLEEEDLDELNIRDPEHRAVLLTAVELLQEYFSN,-0.811 ± 0.093
8,GRPPQPKSVEDLLDRINLKEHMPTFLFNGYEDLDTFKLLEEEDLDELNIRDPEHRAVLLTAVELLQEYWSN,-0.752 ± 0.093
9,GRPPQPKSVEDLLDRINLKEHMPTFLFNGYEDLDTFKLLEEEDLDELNIRDPEHRAVLLTAVELLQEYYSN,-0.644 ± 0.066
10,GRPPQPKSVEDLLDRINLKEHMPTFLFNGYEDLDTFKLLEEEDLDELNIRDPEHRAVLLTAVELLQEYHSN,-0.327 ± 0.056
11,GRPPQPKSVEDLLDRINLKEHMPTFLFNGYEDLDTFKLLEEEDLDELNIRDPEHRAVLLTAVELLQEYKSN,-0.29 ± 0.055
12,GRPPQPKSVEDLLDRINLKEHMPTFLFNGYEDLDTFKLLEEEDLDELNIRDPEHRAVLLTAVELLQEYTSN,-0.358 ± 0.045
13,GRPPQPKSVEDLLDRINLKEHMPTFLFNGYEDLDTFKLLEEEDLDELNIRDPEHRAVLLTAVELLQEYASN,-0.386 ± 0.047
14,GRPPQPKSVEDLLDRINLKEHMPTFLFNGYEDLDTFKLLEEEDLDELNIRDPEHRAVLLTAVELLQEYNSN,-0.289 ± 0.058
15,GRPPQPKSVEDLLDRINLKEHMPTFLFNGYEDLDTFKLLEEEDLDELNIRDPEHRAVLLTAVELLQEYISN,-0.836 ± 0.09
16,GRPPQPKSVEDLLDRINLKEHMPTFLFNGYEDLDTFKLLEEEDLDELNIRDPEHRAVLLTAVELLQEYSSN,-0.296 ± 0.04
17,GRPPQPKSVEDLLDRINLKEHMPTFLFNGYEDLDTFKLLEEEDLDELNIRDPEHRAVLLTAVELLQEYPSN,-0.081 ± 0.041
18,GRPPQPKSVEDLLDRINLKEHMPTFLFNGYEDLDTFKLLEEEDLDELNIRDPEHRAVLLTAVELLQEYGSN,-0.132 ± 0.056
19,GRPPQPKSVEDLLDRINLKEHMPTFLFNGYEDLDTFKLLEEEDLDELNIRDPEHRAVLLTAVELLQEYQSN,-0.262 ± 0.052
20,GRPPQPKSVEDLLDRINLKEHMPTFLFNGYEDLDTFKLLEEEDLDELNIRDPEHRAVLLTAVELLQEYVSN,-0.971 ± 0.086

row,Variant,abundance fitness
1,GRPPQPKSVEDLLDRINLKEHMPTFLFNGYEDLDTFKLLEEEDLDELNIRDPEHRAVLLTAVELLQEYDFN,-0.508 ± 0.23
2,GRPPQPKSVEDLLDRINLKEHMPTFLFNGYEDLDTFKLLEEEDLDELNIRDPEHRAVLLTAVELLQEYDTN,0.422 ± 0.28
3,GRPPQPKSVEDLLDRINLKEHMPTFLFNGYEDLDTFKLLEEEDLDELNIRDPEHRAVLLTAVELLQEGDSN,0.168 ± 0.041
4,GRPPQPKSVEDLLDRINLKEHMPTFLFNGYEDLDTFKLLEEEDLDELNIRDPEHRAVLLTAVELLQESDSN,0.14 ± 0.038
5,GRPPQPKSVEDLLDRINLKEHMPTFLFNGYEDLDTFKLLEEEDLDELNIRDPEHRAVLLTAVELLQEWDSN,-0.056 ± 0.051
6,GRPPQPKSVEDLLDRINLKEHMPTFLFNGYEDLDTFKLLEEEDLDELNIRDPEHRAVLLTAVELLQEIDSN,-0.191 ± 0.055
7,GRPPQPKSVEDLLDRINLKEHMPTFLFNGYEDLDTFKLLEEEDLDELNIRDPEHRAVLLTAVELLQECDSN,0.105 ± 0.051
8,GRPPQPKSVEDLLDRINLKEHMPTFLFNGYEDLDTFKLLEEEDLDELNIRDPEHRAVLLTAVELLQENDSN,0.138 ± 0.053
9,GRPPQPKSVEDLLDRINLKEHMPTFLFNGYEDLDTFKLLEEEDLDELNIRDPEHRAVLLTAVELLQEMDSN,0.025 ± 0.053
10,GRPPQPKSVEDLLDRINLKEHMPTFLFNGYEDLDTFKLLEEEDLDELNIRDPEHRAVLLTAVELLQEEDSN,0.21 ± 0.053
11,GRPPQPKSVEDLLDRINLKEHMPTFLFNGYEDLDTFKLLEEEDLDELNIRDPEHRAVLLTAVELLQEKDSN,0.054 ± 0.056
12,GRPPQPKSVEDLLDRINLKEHMPTFLFNGYEDLDTFKLLEEEDLDELNIRDPEHRAVLLTAVELLQEQDSN,0.254 ± 0.048
13,GRPPQPKSVEDLLDRINLKEHMPTFLFNGYEDLDTFKLLEEEDLDELNIRDPEHRAVLLTAVELLQEVDSN,-0.038 ± 0.043
14,GRPPQPKSVEDLLDRINLKEHMPTFLFNGYEDLDTFKLLEEEDLDELNIRDPEHRAVLLTAVELLQEADSN,0.245 ± 0.039
15,GRPPQPKSVEDLLDRINLKEHMPTFLFNGYEDLDTFKLLEEEDLDELNIRDPEHRAVLLTAVELLQELDSN,-0.068 ± 0.038
16,GRPPQPKSVEDLLDRINLKEHMPTFLFNGYEDLDTFKLLEEEDLDELNIRDPEHRAVLLTAVELLQETDSN,0.031 ± 0.045
17,GRPPQPKSVEDLLDRINLKEHMPTFLFNGYEDLDTFKLLEEEDLDELNIRDPEHRAVLLTAVELLQEPDSN,0.015 ± 0.047
18,GRPPQPKSVEDLLDRINLKEHMPTFLFNGYEDLDTFKLLEEEDLDELNIRDPEHRAVLLTAVELLQERDSN,0.094 ± 0.038
19,GRPPQPKSVEDLLDRINLKEHMPTFLFNGYEDLDTFKLLEEEDLDELNIRDPEHRAVLLTAVELLQEDDSN,0.076 ± 0.054
